This passage reports hydrodynamic size results from publication PMC8184817, “Transmission of light signals from the light-oxygen-voltage core via the hydrophobic region of the β-sheet surface in aureochrome-1” (Scientific Reports, 2021).

B1: Photozipper (PZ), N-terminally truncated aureochrome-1 of Vaucheria frigida, wild type [Vaucheria frigida] / itself (parent)
chain: GSISSELTEAQKVERRERNREHAKRSRVRKKFLLESLQQSVNELNHENNSLKESIREHLGPRGDSLIAQSSPEADTLLTDNPSKANRILEDPDYSLVKALQMAQQNFVITDASLPDNPIVYASRGFLTLTGYSLDQILGRNCRFLQGPETDPRAVDKIRNAITKGVDTSVCLLNYRQDGTTFWNLFFVAGLRDSKGNIVNYVGVQSKVSEDYAKLLVNEQNIEYKGVRTSNMLRRK

The variants in the experiment derive from B1. Put plainly: DLS. The note with it: with itself.

Regarding chain 1 L100A, the hydrodynamic size runs as follows: (D (dark) state) 3.18 nm; (L (light) state) 3.88 nm.
The like results for chain 1 L89A L96A L100A were, in that order, 3.05 nm and 3.86 nm.
